Measurements published in US20150037339A1 (Regeneron, published 2015).

Experiments:
[1] = target: T1, hBMP10 (human, UniProt O95393 317-424); test: SPR (Biacore 4000), captured on anti-human Fc, 200 nM ligand injected, 37 C
T1 construct: Bought protein
T1 sequence (looked up): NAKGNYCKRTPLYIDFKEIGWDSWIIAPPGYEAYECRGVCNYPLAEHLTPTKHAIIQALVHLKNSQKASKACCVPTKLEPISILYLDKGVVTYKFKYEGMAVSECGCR
Protocol: (§1) For the binding experiment, a Biacore 4000 instrument was used. […] All Biacore binding studies were performed in HBS-T running buffer (0.01 M HEPES pH 7.4, 0.5 M NaCl, 3 mM EDTA, 0.5 mg/ml bovine serum albumin, 0.05% v/v Surfactant P20). […] All binding measurements were performed at 37° C. […] Over the captured antibody surface was injected the TGF-beta family ligands through concentrations ranging from 3.1 nM to 200 nM.

[2] = target: T2, Activin A (human, UniProt P08476 311-426); test: as above
T2 construct: Homodimer of two betaA subunits; bought (R&D Systems #338-AC); also called inhibin-betaA dimer
T2 sequence: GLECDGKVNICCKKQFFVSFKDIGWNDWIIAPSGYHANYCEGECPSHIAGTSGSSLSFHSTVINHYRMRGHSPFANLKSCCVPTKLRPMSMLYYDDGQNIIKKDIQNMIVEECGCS
Protocol: as §1

[3] = target: T3, hBMP4 (human, UniProt P12644 293-408); test: as above
T3 construct: Bought protein
T3 sequence (looked up): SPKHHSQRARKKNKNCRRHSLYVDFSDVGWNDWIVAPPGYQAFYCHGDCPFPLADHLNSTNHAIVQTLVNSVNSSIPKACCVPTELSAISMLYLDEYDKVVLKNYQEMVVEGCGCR
Protocol: as §1

[4] = target: T4, Activin AC (human, UniProt P55103 237-352); test: as above
T4 construct: Heterodimer of one betaA and one betaC subunit; bought (R&D Systems #4879-AC)
T4 sequence 1: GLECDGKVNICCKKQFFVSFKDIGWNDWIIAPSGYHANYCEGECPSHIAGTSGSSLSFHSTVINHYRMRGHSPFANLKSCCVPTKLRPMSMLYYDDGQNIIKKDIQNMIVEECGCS
T4 sequence 2: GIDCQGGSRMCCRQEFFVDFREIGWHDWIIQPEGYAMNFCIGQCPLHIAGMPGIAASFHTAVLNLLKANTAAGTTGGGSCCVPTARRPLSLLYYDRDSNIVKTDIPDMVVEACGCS
Protocol: as §1

[5] = target: T5, GDF8 (human, UniProt O14793 267-375); test: as above
T5 construct: Bought (R&D Systems #788-G8); also called hGDF8; growth and differentiation factor-8
Protocol: as §1

[6] = target: T6, hBMP2 (human, UniProt P12643 283-396); test: as above
T6 construct: Bought protein; also called BPM2
Protocol: as §1

[7] = target: T7, hBMP6 (human, UniProt P22004 382-513, limits assumed); test: as above
T7 construct: Bought protein
T7 sequence (looked up): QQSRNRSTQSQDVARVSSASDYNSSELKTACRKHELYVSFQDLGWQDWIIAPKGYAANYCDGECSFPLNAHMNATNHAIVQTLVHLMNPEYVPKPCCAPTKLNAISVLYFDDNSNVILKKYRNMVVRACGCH
Protocol: as §1

[8] = target: T8, GDF11 (human, UniProt O95390 299-407); test: as above
T8 construct: Bought protein; also called hGDF11
Protocol: as §1

[9] = target: T9, hBMP9 (human, UniProt Q9UK05 320-429); test: as above
T9 construct: Bought protein
T9 sequence (looked up): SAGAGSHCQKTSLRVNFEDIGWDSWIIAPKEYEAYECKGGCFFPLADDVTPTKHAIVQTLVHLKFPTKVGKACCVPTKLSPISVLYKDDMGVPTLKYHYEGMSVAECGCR
Protocol: as §1

[10] = target: T10, Activin AB (human, UniProt P08476 311-426; P09529 293-407); test: as above
T10 construct: Heterodimer of one betaA and one betaB subunit; bought (R&D Systems #1006-AB-005 / #1066-AB)
T10 chain 1: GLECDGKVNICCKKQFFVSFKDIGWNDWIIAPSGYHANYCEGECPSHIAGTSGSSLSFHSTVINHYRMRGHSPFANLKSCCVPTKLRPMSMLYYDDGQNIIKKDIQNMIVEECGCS
T10 chain 2: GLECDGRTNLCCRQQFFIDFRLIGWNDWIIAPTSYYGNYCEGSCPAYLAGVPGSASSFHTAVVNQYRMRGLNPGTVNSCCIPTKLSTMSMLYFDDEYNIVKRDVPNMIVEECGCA
Protocol: as §1

[11] = target: T11, Activin B (human, UniProt P09529 293-407); test: as above
T11 construct: Homodimer of two betaB subunits; bought (R&D Systems #659-AB)
T11 chain: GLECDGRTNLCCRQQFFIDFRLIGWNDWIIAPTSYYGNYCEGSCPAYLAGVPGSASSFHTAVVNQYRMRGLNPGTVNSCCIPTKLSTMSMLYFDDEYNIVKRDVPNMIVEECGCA
Protocol: as §1

[12] = target: T10, Activin AB; test: SPR (Biacore), mAb captured on anti-Fc, Activin AB injected, 25 C
Outline: (§2)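 Reported half-lives follow ln2/(60*kd) in minutes, with KD taken as kd/ka. Both rest on fits to binding data from 240 s of association and 600 s of buffer dissociation.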

[13] = target: T4, Activin AC; test: SPR (Biacore), mAb captured on anti-Fc, Activin AC injected, 37 C
Outline: as §2

[14] = target: T2, Activin A; test: cell-based or functional assay
[15] = target: T4, Activin AC; test: cell-based or functional assay
[16] = target: T10, Activin AB; test: cell-based or functional assay
[17] = target: T11, Activin B; test: cell-based or functional assay
[18] = target: T4, Activin AC; test: SPR (Biacore), mAb captured on anti-Fc, Activin AC injected, 25 C
Outline: as §2

[19] = target: T10, Activin AB; test: SPR (Biacore), mAb captured on anti-Fc, Activin AB injected, 37 C
Outline: as §2

T8 sequence (O95390 299-407 limits assumed): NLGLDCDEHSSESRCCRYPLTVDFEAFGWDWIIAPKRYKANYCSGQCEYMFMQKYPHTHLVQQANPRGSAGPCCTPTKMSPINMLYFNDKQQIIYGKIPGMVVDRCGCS
T6 sequence (P12643 283-396 limits assumed): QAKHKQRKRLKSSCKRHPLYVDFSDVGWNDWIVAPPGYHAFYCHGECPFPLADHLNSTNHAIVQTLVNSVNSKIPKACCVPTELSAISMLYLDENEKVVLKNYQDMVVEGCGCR

binding response (resonance units) for 200 nM ligand [1]: 32.4 RU
binding response (resonance units) for 200 nM ligand [2]: 56.8 RU
binding response (resonance units) for 200 nM ligand [3]: 1.1 RU
binding response (resonance units) for 200 nM ligand [4]: 43.1 RU
binding response (resonance units) for 200 nM ligand [5]: -0.4 RU
binding response (resonance units) for 200 nM ligand [6]: 3.6 RU
binding response (resonance units) for 200 nM ligand [7]: 4.6 RU
binding response (resonance units) for 200 nM ligand [8]: 1.6 RU
binding response (resonance units) for 200 nM ligand [9]: 33.4 RU
binding response (resonance units) for 200 nM ligand [10]: 76.5 RU
binding response (resonance units) for 200 nM ligand [11]: 51.5 RU
50 nM Ag Bound (RU) [12]: 40 RU
Kd [12]: 0.0228 nM
koff [12]: 0.000103 s⁻¹
kon [12]: 4.53e+06 M⁻¹ s⁻¹
t1/2 [12]: 1.86 h
50 nM Ag Bound (RU) [13]: 35.7 RU
Kd [13]: 0.462 nM
koff [13]: 0.00062 s⁻¹
kon [13]: 1.34e+06 M⁻¹ s⁻¹
t1/2 [13]: 0.31 h
IC50 [M], inhibition of 100 pM Activin A in A204/CAGAx12-Luc Smad2/3-luciferase bioassay [14]: 1.6e-10 M
IC50 [M], inhibition of 4 nM Activin AC in A204/CAGAx12-Luc Smad2/3-luciferase bioassay [15]: 5.8e-10 M
IC50 [M], inhibition of 30 pM Activin AB in A204/CAGAx12-Luc Smad2/3-luciferase bioassay [16]: 2.9e-10 M
IC50 [M], inhibition of 50 pM Activin B in A204/CAGAx12-Luc Smad2/3-luciferase bioassay [17]: 7.9e-08 M
50 nM Ag Bound (RU) [18]: 28 RU
Kd [18]: 0.0997 nM
koff [18]: 9.1e-05 s⁻¹
kon [18]: 913000 M⁻¹ s⁻¹
t1/2 [18]: 2.12 h
50 nM Ag Bound (RU) [19]: 50 RU
Kd [19]: 0.0755 nM
koff [19]: 0.000488 s⁻¹
kon [19]: 6.47e+06 M⁻¹ s⁻¹
t1/2 [19]: 0.393 h
B1: H4H10429P (antibody, human IgG4, V domains shown)
VH: QVQLVESGGGVVQPGRSLRLSCVASGFTVSSYGIHWVRQAPGKGLEWVSVIWYDGRNKDYADSVKGRFTISRDNSKNTVYLEMKGLRAEDTALYYCARDKTGDFDSWGQGTLVTVSS
VL: DIQMTQSPSSLSASVGDRVTITCRASQNINSFLSWYQQKPGKAPKFLIYDASSIQSGAPSRFSGSGSGTDFTLTISSLQPEDFATYYCQQSYSSPFTFGQGTKLEIK
